# Measured values reported in the DeepSol protein solubility set.
# Assay: soluble on expression in E. coli; label from the status in PepcDB or PDB records
row,Sequence,soluble on expression in E. coli
1,GPGSMRKKSVQETDEVPNERLPHILSSSDDPTEVNKALVVLLRRLRAGAGEPISLSPATLSQLLRILVGRTDDAWLEVRKKIAFVFSELLSKDNADVLADALLYGRLHTTTSSEARASRIDFGGVDENSAPDPFTSLKKMKEILGKLAEAHGTVERCVPAADVFRTFLRLPALLEVIMSPEPLFDVEDNDGSAPAHHATKKRCFNDTCIGILCRSAQAYTTALCTETWRSLSTALCTNKALSAPLLLCYFNEFVGMFLGCLEGDNFVAKLHALELIDAILEDAAFLKARPKLAESPALLCALLPLTNSRSQHIRFLTFDAIKVFIAKGNKPAPIRYILYINRETLARYVEDYSPNEATIGKVLSAEKEKILRSLLSLEPLSHEEEVLLNASA,not soluble
2,MNECGHCSVKVGEESAILTNGKVWHVNHLLCDLCNCRINDGERCVPQNGVILCSECHIKTTRPICKGCGEFIKTNLCEALNSTWHPTCFQCSVCQKPLEVDFHQLPNRMCVHSDCFWDLQLRMIVCKDLPK,not soluble
3,MSLGILEDKKRARIFYRYFSKIYDYINPIFYSDKMRKTVVDMADIDAESLVLEVGCGTGFTTEEIVRRIGEERVVAVDITPEQMMKARAKMGGVNYFLGDAENLPFKDNSFDAAISAGSIEYWPNPQRGIEEMARVTKSGGKVVILAPRKPDNFAVRKFAESIMLFPSTQQCVYWFMKAGLEDIRFVETGPYRFWSKLVVIISGTVPEGHHHHHH,soluble
4,SLPLTMTVLILLLLPTGQAAPKDGVTRPDSEVQHQLLPNPFQPGQEQLGLLQSYLKGLGRTEVQLEHLSREQVLLYLFALHDYDQSGQLDGLELLSMLTAALAPGAANSPTTNPVILIVDKVLETQDLNGDGLMTPAELINFPGVALRHVEPGEPLAPSPQEPQAVGRQSLLAKSPLRQETQEAPGPREEAKGQVEARRESLDPVQEPGGQAEADGDVPGPRGEAEGQAEAKGDAPGPRGEAGGQAEAEGDAPGPRGEAGGQAEARENGEEAKELPGETLESKNTQNDFEVHIVQVENDEI,soluble
5,KASDQFIVYRASIAGPTMIAGYHWFNERGRDILIALPGLALVPQRFDLAKGVLRTFRHYYRHGLMPNVFPDADGEPLYNSIDAALWWVETLGLYLEATQDWEFLAEQFSVVQQIHKAFVGGTHYNIQVDAIDGLISWDARGVALTWMDVVIGANPVTPRHGKPVEINALWYSALCWLSRWAERLSSLELGDPVRLTKQAQRYALQAEKVKTSLQKFWNPQLGYLYDTIEPDDRRNFQIRPNAVLALSLHHCGFSAQQGSQILDLATISLLTPYGLRSLDPGDPEYKGRYEGNQEQRDRAYHQGTVWGWLIGPYIRAWQRFYPEQSLPFDWQPLLDHFLSGACLGSISEIFDGDAPHTPRGAIAQAWSVAEIIRHIQK,not soluble
6,MVEEFKVTPWEVEGVVDYDKLIKHFGTSPLTEDLLEKTAELTKSELPIFFRRKFFFSHRDYDLILKDYEEGRGFFLYTGRGPSGPMHIGHIIPFFATKWLQEKFGVNLYIQITDDEKFLFKENLTFDDTKRWAYDNILDIIAVGFDPDKTFIFQNSEFTKIYEMAIPIAKKINFSMAKAVFGFTEQSKIGMIFFPAIQIAPTFFERKRCLIPAAIDQDPYWRLQRDFAESLGYYKTAALHSKFVPSLTSLSGKMSASKPETAIYLTDSPEDVEKKVWKFTLTGGRPTLKEQREKGGEPEKCVVFKWLEIFFEEDDKKLKERYYACKNGELTCGECKRYLISKIQEFLKEHQRRRKKAEKLVEKFKYTGKLAQEMWNEAIPEPLKRSHHHHHH,soluble
7,MAMTGVLRPGHAQVRVLNLEEGIHFYRNVLGLVETGRDDQGRVYFKCWDERDHSCYIIREADTAGIDFFGFKVLDKATLEKLDADLQAYGLTTTRIPAGEMLETGERVRFELPSGHLIELYAEKTCVGNGISEVNPAPWNAQREHGIAPIQLDHCLLYGPNIAEVQKIFTEVLGFYLVERVLSPDGDSDMGIWLSCSHKVHDIAFVEYPEKGKLHHCSFLLESWEQVLRAGDIMSMNEVNVDIGPTRHGVTRGCTIYAWDPSGNRFETFMGGYHPYPDYEPLSWTYDNFAQGLDYPQRKLHETFMTVVT,soluble
8,MKIDLNADLGEGCASDAELLTLVSSANIACGFHAGDAQIMQACVREAIKNGVAIGAHPSFPDRENFGRSAMQLPPETVYAQTLYQIGALATIARAQGGVMRHVKPHGMLYNQAAKEAQLADAIARAVYACDPALILVGLAGSELIRAGKQYGLTTREEVFADRGYQADGSLVPRSQSGALIENEEQALAQTLEMVQHGRVKSITGEWATVAAQTVCLHGDGEHALAFARRLRSAFAEKGIVVAALEHHHHHH,soluble
9,QVTLKESGPTLVKPTQTLTLTCTFSGFSLRTSRVGVSWIRQPPGKALEWLAHIYWDDDKRYNPSLKSRLTISKDTSKNQVVLTMTNMDPVDTATYYCARRGFYGRKYEVNHFDYWGQGTTVTVSSASTKGPSVFPLAPSSKSTSGGTAALGCLVKDYFPEPVTVSWNSGALTSGVHTFPAVLQSSGLYSLSSVVTVPSSSLGTQTYICNVNHKPSNTKVDKKVEPKSCG,soluble
10,MFVVAVANTKGGCGKTTLATHLAASFACRGYATGLADLDRQKSALGWLKRRPEGAAPIQGINLAREEDIPEGIERLVVDAAAAMDKDVVKDIVRRADLVVVPVLPGVFDEDGTARFVGHLESLKSIRKNRRDVAFVANRVRLNTRALTRLGGFLEELSFPVIARLRDTQHYTAAAAEGLSLFDLPGGRAADYRAEWTPLLDFIEIRVRG,soluble
11,MSDFRLKVFLSVAKNLSFTKASQELFVSQPAITKHIQELETCYQVRLFDRQGNKISLTEAGKLLQEHSEKILEDYKRLEYEMHLLHNEYIGDLKLGASTTISQYVLPPLLANFIAKFPQVNLSLLNGNSREIEAALQEHRIDLGLVEGICRLPNLRYTTFLQDELVAVVHTGSKLSLPDEITPEDLSRIPLVLRERGSGTLDVFERALSEHNMKLSSLNVLLYLGSTESIKLFLEHTDCIGIVSIRSISRELLSGTFRVIEIKGMPMLREFCFAQPQGQESGLSQVLMQFAMHHNKKL,not soluble
12,MKVLIDTNVILDVLLNRASFVQDAIAVLELTCGNIQAYVSASAITDIYYIAYKELRDKIRVKNLIKTLLQIITVAGISDKEIMSAIDSDWADFEDSLQNAVAESHDCSMIITRNISDFNGSNLQIISPKDFIVQFTHLEHHHHHH,not soluble
13,MGHHHHHHSHGPRDIISPELMADYLQPKLLGILAFFNMQLLSSSVGIEDKKMALNSLMSLMKLMGPKHVSSVRVKMMTTLRTGLRFKDDFPELCCRAWDCFVRCLDHACLGSLLSHVIVALLPLIHIQPKETAAIFHYLIIENRDAVQDFLHEIYFLPDHPELKKIKAVLQEYRKETSEST,not soluble
14,PTVLAVTDEELTIRFVSPAIERVLGYDMESLVGTNWLDLVHPADTDRVLATLTGEREDDGTEYRFRNADGDWVWLETIVSSDTE,not soluble
15,MGSDKIHHHHHHAATVAEATSNPWDNYYIGKIDFKNLSPEAKGSAIYAAVIPDPEAYITKHARKVVETLYFTPEDSIPGIEEIHYTLKEYDGVSAKDGAPPSISIVYSTKWIEKSFANNDTAKVDYETRGVLYHELTHGFQLEPQGIGSYGTNKTFWAMIEGVADAVRYLNGGFTLEDRPKGGHYMDGYRTTGFFLAWLTQTKSPDFLRKFNRSTLEVIPWSFDGGVKYALGNDYDIDSLWKEYMATMGDEA,not soluble
16,AIAAELGLNEHHQNEVINYMRFARSKRGLRLKTVDSCFQDLKESRLVEDTFTIDEVSEVLNGLQAVVHSEVESELINTAYTNVLLLRQLFAQAEKWYLKLQTDISELENQELLEQVAEFEKAEITSSNKKPILDVTKPKLAPLNEGGTAELLNEEILRLQEENEKLKSRLKTIEIQATNALDEKSKLEKALQDLQLDQGNQKDFIKAQDLSNLENTVAALKSEFQKTLNDKTENQKSLEENLATAKHDLLRVREQLHMAEKELEKKFQQTAAYRNMKEILTKKNDQIKDLRKRLAQYEPED,soluble
17,MGSDKIHHHHHHMQLTVWTYEGPPHVGAMRVATGMEGLHYVLHAPQGDTYADLLFTMIERRDRRPPVTYTTFAARDLGKDTAELFKTAAQNAYDRFKPQAMIVGASCTGSLIQDDPGGLAKALALPIPVVAIDLPAYQRKENWGAAETFYQLVRAIAGPKAPPPGSKRPERPAGKRPSCNLLGPTALGFRHRDDIIELTTLLGKLGIDVNVTAPMGATPADLARLGEADFNVVMYPETASQAASWLHRMFHQPFTKIVPIGVSATREFIEEVAKLADVDPTAVLKSYSSRLPWYSHSVDSTYLTGKRVFIFGDATHVVAAARMASDEMGFKVVGLGTYSREFGREIREAAKLYDVEPLITDDYLEVEAKVAELHPELVLGTQMERHIAKRLGVPCAVISAPVHVQDFPARYAPQMGFEGANVIFDTWVHPLMMGLEEHLLTMFRDDFEFKDGATPSHLGVGHAPAPAPAVADSAAVEVLDATTATTTETTTAVWAADAEKELRKIPFFVRGKARRNTERFANENGVATITVETLYDAKAHFSR,not soluble
18,MKETTIYGRLVMAVKNTAQVVIGGKIITLGGYESEEYFQKVASYINNKIAELSEMPGYTRQPVETKHTLLSLNVTDDYFKAKKQAEIFEQDLQQKDQEMYELKHELIALRMKIEETEKNAQEAQQQKELLEGKVKELNDEIDKLLK,not soluble
19,MTEKKSDRTAAKKRSEQAVHELVTRIDTHPGDADAYYELATVLVDLKSFAQAEELLMKALGLFQAQPAVVDKLHYGLGNVYYAAEDYPKAIQQFDSLGAQWKGAGYLMLAQSYMANGDHKRALAFALTALASQPDDVATLQVVAENLLALGNMAQAAQYYDQLLAIDPKNGRAIFDRGLVAMVQGTPYADYFERAQTLDPQYFEQGQQRLADIEKFMQQTPDSDQQLEHHHHHH,soluble
20,MAHHHHHHMSNHGGSSSLDALGGVETAAAETTRNIVLGLPKDGPVPGSSDAASLQAAEAFIGSIQQEIMACDMANARAMELYARHWWTKVPYFGKRFGSTTATLEVTGADGGGVSGLPACTGTSDGQHKHMRLERSSEVAAVPGTSRGQQQRLNSWFFKLRHPGWVPIIQRPWVPYFCIGCLMLVWTPDIWKLRTLHWCDYQYAEFRRAVHRAYWRATMSAEDYKELMEELERGRPPPFGVSKCPL,not soluble
21,GMTVRDENYFTEKYGLTRTHSDVLAAAKVVAPGRTLDLGCGNGRNSLYLAANGYDVTAWDKNPASMANLERIKAAEGLDNLQTDLVDLNTLTFDGEYDFILSTVVMMFLEAQTIPGLIANMQRCTKPGGYNLIVAAMDTPDFPCTVGFPFAFKEGELRRYYEGWDMLKYNEDVGELHRTDENGNRIKLRFATMLARKTA,soluble
22,MGSDKIHHHHHHMCMYSATFTLEAITPVFMRGANQSKAEIRAASIKGLMRWWFRALSGSYFGNDVEGLRRVEEYVFGSTKRESRVVVEVVKEHVEERFCPLPMVWKKKKGVTTRVSQRAIAPGSKFTLLLTSDDEEVLKLACYSLIGLVYFGGIGFRCSRGAGSLKISSLKSDVQLIDLPKNKNQLGQMVNDLTVEIAKILKKTFLCDHENKNCTSYSSFWCFYLFLWGEKAELEEVYYRSNNLENERLTLLDLFEKEFKNKNNHLSNYGYRDFVFGLPRGTKKDRRASPIKVGITELSEKYHVRVSVFKTKIFKPGMNVKWDNIFVFLENIGAERIYPER,not soluble
23,GMTQKEWPLWEVFVRSKQGLEHKHCGSLHATDAQQALHMARDVYTRRQEGVSIWVVPSTAITASAPEEKPELFDPMADKIYRHPTFYQLPDEVNHM,soluble
